The subject of data set [1] is rabbit anti-human IgG Fc-specific monoclonal (RAH) (rabbit). The data set is described as follows: ITC. The following applies: unlabeled IgG; 80 uM aptamer into 2.5 uM IgG; ITC: PBS (10 mM phosphate, 2.7 mM KCl, 137 mM NaCl, pH 7.4), 25 C; FRET: Ex 550 nm, Em 620/670 nm, titration buffer not stated.
For data set [2], the system named is purified whole IgG from rabbit serum (polyclonal) (rabbit). The data set is described as follows: ITC. The settings on record: unlabeled IgG; 80 uM aptamer into 2.5 uM IgG; ITC: PBS (10 mM phosphate, 2.7 mM KCl, 137 mM NaCl, pH 7.4), 25 C; FRET: Ex 550 nm, Em 620/670 nm, titration buffer not stated.
The test system of data set [3] is ALEXA-594-labeled rabbit anti-human IgG Fc-specific monoclonal (594-RAH) (rabbit). The data set can be described thus: FRET titration. The settings on record: apparent Kd, ITC: PBS (10 mM phosphate, 2.7 mM KCl, 137 mM NaCl, pH 7.4), 25 C, FRET: Ex 550 nm, Em 620/670 nm, titration buffer not stated.

“CCAACCACACATCCTTCCATCGACATGGACCCACCGTTCC [AptaShield DNA aptamer]”: the Kd turned out to be 224 nM in data set [1], 890 nM in data set [2], 95 nM in data set [3] (RAH-594 titrated into 200 nM aptamer) and 44.5 nM in data set [3] (aptamer titrated into 200 nM RAH-594).

The record behind these values is article PMC11059090.
